According to patent publication US7657380:

T1: CD30 fused to the Fc region of IgG1 (R&D Systems) (UniProt P28908 19-379)
T1 sequence (looked up): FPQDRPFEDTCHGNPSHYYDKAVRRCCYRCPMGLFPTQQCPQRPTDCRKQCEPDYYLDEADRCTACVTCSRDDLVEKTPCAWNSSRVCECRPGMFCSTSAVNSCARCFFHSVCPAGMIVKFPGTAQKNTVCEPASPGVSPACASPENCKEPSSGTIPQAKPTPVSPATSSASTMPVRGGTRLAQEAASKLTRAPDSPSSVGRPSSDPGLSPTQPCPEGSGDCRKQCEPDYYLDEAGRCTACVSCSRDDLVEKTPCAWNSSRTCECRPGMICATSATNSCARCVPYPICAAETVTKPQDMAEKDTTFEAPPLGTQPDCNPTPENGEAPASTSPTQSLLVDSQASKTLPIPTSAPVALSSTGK

T2: human CD30 (commercial, conjugated to digoxigenin) (human, UniProt P28908 19-379, limits assumed, conjugated to digoxigenin (DIG))
T2 sequence (looked up): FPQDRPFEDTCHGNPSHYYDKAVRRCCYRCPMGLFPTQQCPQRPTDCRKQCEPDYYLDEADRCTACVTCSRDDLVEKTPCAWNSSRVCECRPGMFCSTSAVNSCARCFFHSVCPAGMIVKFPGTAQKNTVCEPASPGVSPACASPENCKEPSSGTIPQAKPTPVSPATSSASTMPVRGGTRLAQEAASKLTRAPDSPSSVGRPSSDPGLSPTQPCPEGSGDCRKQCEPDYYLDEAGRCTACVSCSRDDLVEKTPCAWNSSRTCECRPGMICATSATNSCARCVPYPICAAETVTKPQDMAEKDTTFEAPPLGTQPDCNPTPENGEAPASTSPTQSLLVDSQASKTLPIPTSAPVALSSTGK


Legend:
[1] = biological target: T1, CD30 fused to the Fc region of IgG1 …; assay: SPR, CD30-Fc on Protein A chip
[2] = biological target: T2, human CD30 (commercial, conjugated to …); assay: AlphaScreen competition vs biotin-WT AC10
[3] = biological target: T2, human CD30 (commercial, conjugated to …); assay: AlphaScreen competition

| Binder | Fold KD vs WT [1] [fold] | Kd [1] [nM] | Fold IC50 vs WT [2] [fold] | IC50 [2] [nM] | Fold IC50 vs H3/L3 [3] [fold] |
| --- | --- | --- | --- | --- | --- |
| AC10 H1/L3 full length antibody (antibody, V domains shown) VH: QIQLVQSGPEVKKPGASVKVSCKASGYTFTDYYITWVRQAPGQGLEWMGWIYPGSGNTKYNEKFQGRVTITVDTSASTAYMELSSLRSEDTAVYFCANYGNYWFAYWGQGTLVTVSS VL: DIVLTQSPDSLAVSLGERATINCKASQSVDFDGDSYMNWYQQKPGQPPKVLIYAASNLESGIPARFSGSGSGTDFTLTINSLEAEDAATYYCQQSNEDPWTFGGGTKVEIK | 0.67 | 5.09 | 0.18 | 17.4 |  |
| AC10 H3/L3 full length antibody (antibody, V domains shown) VH: QIQLVQSGPEVKKPGASVKVSCKASGYTFTDYYITWVRQAPGQGLEWMGWIYPGSGNTKYNEKFQGRFVFSVDTSASTAYLQISSLKAEDTAVYFCANYGNYWFAYWGQGTLVTVSS VL: DIVLTQSPDSLAVSLGERATINCKASQSVDFDGDSYMNWYQQKPGQPPKVLIYAASNLESGIPARFSGSGSGTDFTLTINSLEAEDAATYYCQQSNEDPWTFGGGTKVEIK | 1.45 | 2.33 | 1.59 | 1.99 |  |
| AC10 H2/L0 full length antibody (antibody, V domains shown) VH: QIQLVESGGGLVKPGGSLRLSCAASGYTFTDYYITWVRQAPGQGLEWMGWIYPGSGNTKYNEKFQGRVTMTVDTSTSTAYMELSSLRSEDTAVYFCANYGNYWFAYWGQGTLVTVSS VL: DIVLTQSPASLAVSLGQRATISCKASQSVDFDGDSYMNWYQQKPGQPPKVLIYAASNLESGIPARFSGSGSGTDFTLNIHPVEEEDAATYYCQQSNEDPWTFGGGTKLEIK | 0.42 | 8 | 0.16 | 19.4 |  |
| AC10 H1/L1 full length antibody (antibody, V domains shown) VH: QIQLVQSGPEVKKPGASVKVSCKASGYTFTDYYITWVRQAPGQGLEWMGWIYPGSGNTKYNEKFQGRVTITVDTSASTAYMELSSLRSEDTAVYFCANYGNYWFAYWGQGTLVTVSS VL: DIVLTQSPATLSLSPGERATLSCRASQSVDFDGDSYMNWYQQKPGQPPKVLIYAASNLESGIPARFSGSGSGTDFTLTISSLQPEDFATYYCQQSNEDPWTFGGGTKVEIK | 0.6 | 5.63 | 0.11 | 27.7 |  |
| AC10 H3/L3.64 (antibody, IgG1, name in Kabat numbering, V domains shown) VH: QIQLVQSGPEVKKPGASVKVSCKASGYTFTDYYITWVRQAPGQGLEWMGWIYPGSGNTKYNEKFQGRFVFSVDTSASTAYLQISSLKAEDTAVYFCANYGNYWFAYWGQGTLVTVSS VL: DIVLTQSPDSLAVSLGERATINCKASQSVDFDGDSYMNWYQQKPGQPPKVLIYAASNLESGIPARFSGSGSGTDFTLTINSLEAEDAATYYCQQSNETPWTFGGGTKVEIK |  |  |  |  | 0.14 |
| AC10 H1/L2 full length antibody (antibody, V domains shown) VH: QIQLVQSGPEVKKPGASVKVSCKASGYTFTDYYITWVRQAPGQGLEWMGWIYPGSGNTKYNEKFQGRVTITVDTSASTAYMELSSLRSEDTAVYFCANYGNYWFAYWGQGTLVTVSS VL: DIVLTQSPSSLSASVGDRVTITCRASQSVDFDGDSYMNWYQQKPGQPPKVLIYAASNLESGIPARFSGSGSGTDFTLTISSLQPEDFATYYCQQSNEDPWTFGGGTKVEIK | 0.45 | 7.55 | 0.07 | 45.3 |  |
| AC10 H3/L0 full length antibody (antibody, V domains shown) VH: QIQLVQSGPEVKKPGASVKVSCKASGYTFTDYYITWVRQAPGQGLEWMGWIYPGSGNTKYNEKFQGRFVFSVDTSASTAYLQISSLKAEDTAVYFCANYGNYWFAYWGQGTLVTVSS VL: DIVLTQSPASLAVSLGQRATISCKASQSVDFDGDSYMNWYQQKPGQPPKVLIYAASNLESGIPARFSGSGSGTDFTLNIHPVEEEDAATYYCQQSNEDPWTFGGGTKLEIK | 1.1 | 3.08 | 0.51 | 6.18 |  |
| AC10 H3/L2 full length antibody (antibody, V domains shown) VH: QIQLVQSGPEVKKPGASVKVSCKASGYTFTDYYITWVRQAPGQGLEWMGWIYPGSGNTKYNEKFQGRFVFSVDTSASTAYLQISSLKAEDTAVYFCANYGNYWFAYWGQGTLVTVSS VL: DIVLTQSPSSLSASVGDRVTITCRASQSVDFDGDSYMNWYQQKPGQPPKVLIYAASNLESGIPARFSGSGSGTDFTLTISSLQPEDFATYYCQQSNEDPWTFGGGTKVEIK | 1.19 | 2.86 | 0.48 | 6.57 |  |
| AC10 H3/L1 full length antibody (antibody, V domains shown) VH: QIQLVQSGPEVKKPGASVKVSCKASGYTFTDYYITWVRQAPGQGLEWMGWIYPGSGNTKYNEKFQGRFVFSVDTSASTAYLQISSLKAEDTAVYFCANYGNYWFAYWGQGTLVTVSS VL: DIVLTQSPATLSLSPGERATLSCRASQSVDFDGDSYMNWYQQKPGQPPKVLIYAASNLESGIPARFSGSGSGTDFTLTISSLQPEDFATYYCQQSNEDPWTFGGGTKVEIK | 1.39 | 2.44 | 0.52 | 6.09 |  |
| AC10 H1/L0 full length antibody (antibody, V domains shown) VH: QIQLVQSGPEVKKPGASVKVSCKASGYTFTDYYITWVRQAPGQGLEWMGWIYPGSGNTKYNEKFQGRVTITVDTSASTAYMELSSLRSEDTAVYFCANYGNYWFAYWGQGTLVTVSS VL: DIVLTQSPASLAVSLGQRATISCKASQSVDFDGDSYMNWYQQKPGQPPKVLIYAASNLESGIPARFSGSGSGTDFTLNIHPVEEEDAATYYCQQSNEDPWTFGGGTKLEIK | 0.53 | 6.39 | 0.32 | 9.77 |  |
| AC10 H3/L3.66 (antibody, IgG1, name in Kabat numbering, V domains shown) VH: QIQLVQSGPEVKKPGASVKVSCKASGYTFTDYYITWVRQAPGQGLEWMGWIYPGSGNTKYNEKFQGRFVFSVDTSASTAYLQISSLKAEDTAVYFCANYGNYWFAYWGQGTLVTVSS VL: DIVLTQSPDSLAVSLGERATINCKASQSVDFDGDSYMNWYQQKPGQPPKVLIYAASNLESGIPARFSGSGSGTDFTLTINSLEAEDAATYYCQQSNEDPITFGGGTKVEIK |  |  |  |  | 0 |
| AC10 H3/L3.65 (antibody, IgG1, name in Kabat numbering, V domains shown) VH: QIQLVQSGPEVKKPGASVKVSCKASGYTFTDYYITWVRQAPGQGLEWMGWIYPGSGNTKYNEKFQGRFVFSVDTSASTAYLQISSLKAEDTAVYFCANYGNYWFAYWGQGTLVTVSS VL: DIVLTQSPDSLAVSLGERATINCKASQSVDFDGDSYMNWYQQKPGQPPKVLIYAASNLESGIPARFSGSGSGTDFTLTINSLEAEDAATYYCQQSNEDPFTFGGGTKVEIK |  |  |  |  | 0.34 |
| AC10 H2/L3 full length antibody (antibody, V domains shown) VH: QIQLVESGGGLVKPGGSLRLSCAASGYTFTDYYITWVRQAPGQGLEWMGWIYPGSGNTKYNEKFQGRVTMTVDTSTSTAYMELSSLRSEDTAVYFCANYGNYWFAYWGQGTLVTVSS VL: DIVLTQSPDSLAVSLGERATINCKASQSVDFDGDSYMNWYQQKPGQPPKVLIYAASNLESGIPARFSGSGSGTDFTLTINSLEAEDAATYYCQQSNEDPWTFGGGTKVEIK | 0.5 | 6.75 | 0.12 | 27.2 |  |
| AC10 H2/L1 full length antibody (antibody, V domains shown) VH: QIQLVESGGGLVKPGGSLRLSCAASGYTFTDYYITWVRQAPGQGLEWMGWIYPGSGNTKYNEKFQGRVTMTVDTSTSTAYMELSSLRSEDTAVYFCANYGNYWFAYWGQGTLVTVSS VL: DIVLTQSPATLSLSPGERATLSCRASQSVDFDGDSYMNWYQQKPGQPPKVLIYAASNLESGIPARFSGSGSGTDFTLTISSLQPEDFATYYCQQSNEDPWTFGGGTKVEIK | 0.36 | 9.49 | 0.06 | 55.1 |  |
